Target: von Willebrand factor (VWF) in plasma of patients with severe COVID-19, P04275

B1: Purified recombinant human ADAMTS13 (rADAMTS13, Takeda, Vienna, Austria) from a Chinese hamster ovary cell line (protein)
chain: AAGGILHLELLVAVGPDVFQAHREDTERYVLTNLNIGAELLRDPSLGAQFRVHLVKMVILTEPEGAPNITANLTSSLLSVCGWSQTINPEDDTDPGHADLVLYITRFDLELPDGNRQVRGVTQLGGACSPTWSCLITEDTGFDLGVTIAHEIGHSFGLEHDGAPGSGCGPSGHVMASDGAAPRAGLAWSPCSRRQLLSLLSAGRARCVWDPPRPQPGSAGHPPDAQPGLYYSANEQCRVAFGPKAVACTFAREHLDMCQALSCHTDPLDQSSCSRLLVPLLDGTECGVEKWCSKGRCRSLVELTPIAAVHGRWSSWGPRSPCSRSCGGGVVTRRRQCNNPRPAFGGRACVGADLQAEMCNTQACEKTQLEFMSQQCARTDGQPLRSSPGGASFYHWGAAVPHSQGDALCRHMCRAIGESFIMKRGDSFLDGTRCMPSGPREDGTLSLCVSGSCRTFGCDGRMDSQQVWDRCQVCGGDNSTCSPRKGSFTAGRAREYVTFLTVTPNLTSVYIANHRPLFTHLAVRIGGRYVVAGKMSISPNTTYPSLLEDGRVEYRVALTEDRLPRLEEIRIWGPLQEDADIQVYRRYGEEYGNLTRPDITFTYFQPKPRQAWVWAAVRGPCSVSCGAGLRWVNYSCLDQARKELVETVQCQGSQQPPAWPEACVLEPCPPYWAVGDFGPCSASCGGGLRERPVRCVEAQGSLLKTLPPARCRAGAQQPAVALETCNPQPCPARWEVSEPSSCTSAGGAGLALENETCVPGADGLEAPVTEGPGSVDEKLPAPEPCVGMSCPPGWGHLDATSAGEKAPSPWGSIRTGAQAAHVWTPAAGSCSVSCGRGLMELRFLCMDSALRVPVQEELCGLASKPGSRREVCQAVPCPARWQYKLAACSVSCGRGVVRRILYCARAHGEDDGEEILLDTQCQGLPRPEPQEACSLEPCPPRWKVMSLGPCSASCGLGTARRSVACVQLDQGQDVEVDEAACAALVRPEASVPCLIADCTYRWHVGTWMECSVSCGDGIQRRRDTCLGPQAQAPVPADFCQHLPKPVTVRGCWAGPCVGQGTPSLVPHEEAAAPGRTTATPAGASLEWSQARGLLFSPAPQPRRLLPGPQENSVQSSACGRQHLEPTGTIDMRGPGQADCAVAIGRPLGEVVTLRVLESSLNCSAGDMLLLWGRLTWRKMCRKLLDMTFSSKTNTLVVRQRCGRPGGGVLLRYGSQLAPETFYRECDMQLFGPWGEIVSPSLSPATSNAGGCRLFINVAPHARIAIHALATNMGAGTEGANASYILIRDTHSLRTTAFHGQQVLYWESESSQAEMEFSEGFLKAQASLRGQYWTLQSWVPEMQDPQSWKGKEGT
Protein B1 has a Decrease (%) of VWF:CB 0 vs. 5 hrs, plasma B1 of 65%, a Decrease (%) of VWF:CB 0 vs. 5 hrs, plasma B2 of 60% and a Decrease (%) of VWF:CB 0 vs. 5 hrs, plasma B5 of 65%. The Decrease (%) of VWF:CB 0 vs. 5 hrs, plasma B7 was 52%, the Decrease (%) of VWF:CB 0 vs. 5 hrs, plasma B15 was 44% and the Decrease (%) of VWF:CB 0 vs. 5 hrs, plasma B18 was 63%. The Decrease (%) of VWF:CB 0 vs. 5 hrs, plasma S6 was 33%, the Decrease (%) of VWF:CB 0 vs. 5 hrs, plasma S10 was 60% and the Decrease (%) of VWF:CB 0 vs. 5 hrs, plasma S12 was 53%. For the same protein, the Decrease (%) of VWF:CB 0 vs. 5 hrs, plasma S21 was 44%, the Dimer relative to total multimer content (AUC %) at 0 hrs, plasma B1 was 3.6 AUC % and the Dimer relative to total multimer content (AUC %) at 0 hrs, plasma B2 was 5.4 AUC %. It also gave a Dimer relative to total multimer content (AUC %) at 0 hrs, plasma B5 of 3.7 AUC %, a Dimer relative to total multimer content (AUC %) at 0 hrs, plasma B7 of 5.3 AUC % and a Dimer relative to total multimer content (AUC %) at 0 hrs, plasma B15 of 5.1 AUC %. The Dimer relative to total multimer content (AUC %) at 0 hrs, plasma B18 was 3.6 AUC %, the Dimer relative to total multimer content (AUC %) at 0 hrs, plasma S6 was 5.4 AUC % and the Dimer relative to total multimer content (AUC %) at 0 hrs, plasma S21 was 4.9 AUC %. The Dimer relative to total multimer content (AUC %) at 5 hrs, plasma B1 was 9.1 AUC %, the Dimer relative to total multimer content (AUC %) at 5 hrs, plasma B2 was 11.3 AUC % and the Dimer relative to total multimer content (AUC %) at 5 hrs, plasma B5 was 11 AUC %. For the same protein, the Dimer relative to total multimer content (AUC %) at 5 hrs, plasma B7 was 10.1 AUC %, the Dimer relative to total multimer content (AUC %) at 5 hrs, plasma B15 was 12.3 AUC % and the Dimer relative to total multimer content (AUC %) at 5 hrs, plasma B18 was 7 AUC %. It also gave a Dimer relative to total multimer content (AUC %) at 5 hrs, plasma S6 of 7 AUC %, a Dimer relative to total multimer content (AUC %) at 5 hrs, plasma S21 of 8.5 AUC % and an Increase (%) of dimer 0 vs. 5 hrs, plasma B1 of 253%. The Increase (%) of dimer 0 vs. 5 hrs, plasma B2 was 209%, the Increase (%) of dimer 0 vs. 5 hrs, plasma B5 was 297% and the Increase (%) of dimer 0 vs. 5 hrs, plasma B7 was 191%. The Increase (%) of dimer 0 vs. 5 hrs, plasma B15 was 241%, the Increase (%) of dimer 0 vs. 5 hrs, plasma B18 was 194% and the Increase (%) of dimer 0 vs. 5 hrs, plasma S6 was 130%. The Increase (%) of dimer 0 vs. 5 hrs, plasma S21 was 173%, the “UHMW VWF multimers by semi-automated electrophoresis, plasma B1, 10 IU/mL rADAMTS13” value was “disappearance of all the abnormal UHMW VWF multimers” and the “UHMW multimer quantitation parameter after 5 h with 10 IU/mL rADAMTS13, plasma B1” value was “to a level lower than that observed in control plasma (88%)”. For the same protein, the “UHMW multimer quantitation parameter before incubation, plasma B1 (home cast gels)” value was “the elevated UHMW multimer quantitation parameter of 124%”, the VWF:CB (IU/mL) at 0 hrs, plasma B1, 1 IU/mL rADAMTS13 was 3.09 IU/mL and the VWF:CB (IU/mL) at 0 hrs, plasma B2, 1 IU/mL rADAMTS13 was 1.39 IU/mL. The VWF:CB (IU/mL) at 0 hrs, plasma B5, 1 IU/mL rADAMTS13 was 2.46 IU/mL, the VWF:CB (IU/mL) at 0 hrs, plasma B7, 1 IU/mL rADAMTS13 was 3.03 IU/mL and the VWF:CB (IU/mL) at 0 hrs, plasma B15, 1 IU/mL rADAMTS13 was 2.44 IU/mL. For the same protein, the VWF:CB (IU/mL) at 0 hrs, plasma B18, 1 IU/mL rADAMTS13 was 2.25 IU/mL, the VWF:CB (IU/mL) at 0 hrs, plasma S6, 1 IU/mL rADAMTS13 was 2.19 IU/mL and the VWF:CB (IU/mL) at 0 hrs, plasma S10, 1 IU/mL rADAMTS13 was 6.48 IU/mL. For the same protein, the VWF:CB (IU/mL) at 0 hrs, plasma S12, 1 IU/mL rADAMTS13 was 3.01 IU/mL, the VWF:CB (IU/mL) at 0 hrs, plasma S21, 1 IU/mL rADAMTS13 was 3.7 IU/mL and the VWF:CB (IU/mL) at 5 hrs, plasma B1, 1 IU/mL rADAMTS13 was 2.02 IU/mL. The VWF:CB (IU/mL) at 5 hrs, plasma B2, 1 IU/mL rADAMTS13 was 0.84 IU/mL, the VWF:CB (IU/mL) at 5 hrs, plasma B5, 1 IU/mL rADAMTS13 was 1.61 IU/mL and the VWF:CB (IU/mL) at 5 hrs, plasma B7, 1 IU/mL rADAMTS13 was 1.58 IU/mL. It also gave a VWF:CB (IU/mL) at 5 hrs, plasma B15, 1 IU/mL rADAMTS13 of 1.08 IU/mL, a VWF:CB (IU/mL) at 5 hrs, plasma B18, 1 IU/mL rADAMTS13 of 1.42 IU/mL and a VWF:CB (IU/mL) at 5 hrs, plasma S6, 1 IU/mL rADAMTS13 of 0.73 IU/mL. For the same protein, the VWF:CB (IU/mL) at 5 hrs, plasma S10, 1 IU/mL rADAMTS13 was 3.91 IU/mL, the VWF:CB (IU/mL) at 5 hrs, plasma S12, 1 IU/mL rADAMTS13 was 1.6 IU/mL and the VWF:CB (IU/mL) at 5 hrs, plasma S21, 1 IU/mL rADAMTS13 was 1.63 IU/mL. For the same protein, the “mean VWF:CB of ten patient samples after 5 h incubation with 1 IU/mL rADAMTS13” value was “decreased from 3.01 (SD: 1.37; SEM: 0.434) to 1.64 (SD: 0.89; SEM 0.28) IU/mL”, the “mean VWF:CB of ten patient samples before incubation with 1 IU/mL rADAMTS13” value was “decreased from 3.01 (SD: 1.37; SEM: 0.434) to 1.64 (SD: 0.89; SEM 0.28) IU/mL” and the “reduction in VWF activity at 5 h, plasma B1, 10 IU/mL rADAMTS13” value was “more than a 60% reduction at 5 h”. The “reduction in VWF activity within 5 h, plasma B1, 1 IU/mL rADAMTS13” value was “within 5 h, VFW activity reduced by about 30%”, the “reduction of the UHMW multimer quantitation parameter after 5 h with 1 IU/mL rADAMTS13, plasma B1” value was “reduced by 16% after 5 h of incubation with 1 IU/mL rADAMTS13” and the “reduction of the UHMW multimer quantitation parameter after 5 h with 10 IU/mL rADAMTS13, plasma B1” value was “by 36% with 10 IU/mL rADAMTS13”.
